Consider one molecule from paper PMC4852880.

The series concerns the target HMGB1b (rat, UniProt P63159 95-163). The experiment in a line: EMSA. On the technique in general: In EMSA bound probe runs differently from free probe, usually more slowly.

HMGB1b, sequence (P63159 95-163): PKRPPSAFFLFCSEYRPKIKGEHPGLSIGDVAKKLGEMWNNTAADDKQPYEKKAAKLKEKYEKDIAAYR

B1: J1 (structured_DNA)
DNA 1: CGCAATCCTGAGCACG
DNA 2: CGTGCTCACCGAATCG
DNA 3: GCATTCGGACTATGGC
DNA 4: GCCATAGTGGATTGCG
As for B1, the binding result is on record as “binds”.
